The assay concerns the target T1, Saccharomyces cerevisiae Snf7 mutant (R52E) (Saccharomyces cerevisiae, UniProt P39929 1-240, R52E).
T1 sequence (looked up): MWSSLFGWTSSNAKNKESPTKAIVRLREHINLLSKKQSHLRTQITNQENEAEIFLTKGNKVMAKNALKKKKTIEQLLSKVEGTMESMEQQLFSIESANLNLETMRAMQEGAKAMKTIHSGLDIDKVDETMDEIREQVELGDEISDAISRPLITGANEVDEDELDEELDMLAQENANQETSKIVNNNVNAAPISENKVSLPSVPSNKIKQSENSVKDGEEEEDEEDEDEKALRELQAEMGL
The experiment in a line: co-sedimentation.

The record followed here is paper doi:10.1101/2024.03.13.584854 (bioRxiv, 2024).

B1: Saccharomyces cerevisiae Vps24 (natural protein, UniProt P36095 1-224, looked up)
chain: MDYIKKAIWGPDPKEQQRRIRSVLRKNGRNIEKSLRELTVLQNKTQQLIKKSAKKNDVRTVRLYAKELYQINKQYDRMYTSRAQLDSVRMKIDEAIRMNTLSNQMADSAGLMREVNSLVRLPQLRNTMIELEKELMKSGIISEMVDDTMESVGDVGEEMDEAVDEEVNKIVEQYTNEKFKNVDQVPTVELAANEEEQEIPDEKVDEEADRMVNEMRERLRALQN
As for B1, the binding result is given as “binds”.

B2: Saccharomyces cerevisiae Vps2 (natural protein, UniProt P36108 1-232, looked up)
chain: MSLFEWVFGKNVTPQERLKKNQRALERTQRELEREKRKLELQDKKLVSEIKKSAKNGQVAAAKVQAKDLVRTRNYIQKFDNMKAQLQAISLRIQAVRSSDQMTRSMSEATGLLAGMNRTMNLPQLQRISMEFEKQSDLMGQRQEFMDEAIDNVMGDEVDEDEEADEIVNKVLDEIGVDLNSQLQSTPQNLVSNAPIAETAMGIPEPIGAGSEFHGNPDDDLQARLNTLKKQT
Regarding B2, the binding result was “binds”.
